T1: recombinant human regenerating islet-derived protein 1α (REG1A) (human, UniProt P05451 23-166, limits assumed)
T1 construct: also called recombinant human REG1A; recombinant REG1A
T1 sequence (looked up): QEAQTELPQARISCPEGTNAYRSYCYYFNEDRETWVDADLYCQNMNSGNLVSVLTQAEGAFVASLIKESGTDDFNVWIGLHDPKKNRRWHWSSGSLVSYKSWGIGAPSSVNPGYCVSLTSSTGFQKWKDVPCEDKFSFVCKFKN


Legend:
[1] = biological target: T1, recombinant human regenerating …; experiment: sandwich ELISA; capture 25F3C4; REG1A 11.11 ng/mL
In short: (§1)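 Sandwich ELISA with the capture monoclonal antibody coated overnight at 4 °C in PBS, then blocking for 2 h at 37 °C. Recombinant human REG1A in basic diluent (100 μL per well) was incubated for 1 h at 37 °C. It was then detected with a horseradish peroxidase-based detection antibody system and TMB substrate for 15 min at 37 °C, and stopped with 0.2M sulfuric acid. OD value is the absorbance at 450 nm minus that at 620/630 nm.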

[2] = biological target: T1, recombinant human regenerating …; experiment: sandwich ELISA; capture 21B11D2; REG1A 100.00 ng/mL
In short: as §1

[3] = biological target: T1, recombinant human regenerating …; experiment: sandwich ELISA; capture 21B11D2; REG1A 1.23 ng/mL
In short: as §1

[4] = biological target: T1, recombinant human regenerating …; experiment: sandwich ELISA; capture 4H8F1; REG1A 0 ng/mL (blank)
In short: as §1

[5] = biological target: T1, recombinant human regenerating …; experiment: sandwich ELISA; capture 4H8F1; REG1A 1.23 ng/mL
In short: as §1

[6] = biological target: T1, recombinant human regenerating …; experiment: sandwich ELISA; capture 21B11D2; REG1A 33.33 ng/mL
In short: as §1

[7] = biological target: T1, recombinant human regenerating …; experiment: sandwich ELISA; capture 12F12A10; REG1A 11.11 ng/mL
In short: as §1

[8] = biological target: T1, recombinant human regenerating …; experiment: sandwich ELISA; capture 4H8F1; REG1A 33.33 ng/mL
In short: as §1

[9] = biological target: T1, recombinant human regenerating …; experiment: sandwich ELISA; capture 11D11B11; REG1A 100.00 ng/mL
In short: as §1

[10] = biological target: T1, recombinant human regenerating …; experiment: sandwich ELISA; capture 11D11B11; REG1A 11.11 ng/mL
In short: as §1

[11] = biological target: T1, recombinant human regenerating …; experiment: sandwich ELISA; capture 11D11B11; REG1A 33.33 ng/mL
In short: as §1

[12] = biological target: T1, recombinant human regenerating …; experiment: sandwich ELISA; capture 11D11B11; REG1A 1.23 ng/mL
In short: as §1

[13] = biological target: T1, recombinant human regenerating …; experiment: sandwich ELISA; capture 12F12A10; REG1A 1.23 ng/mL
In short: as §1

[14] = biological target: T1, recombinant human regenerating …; experiment: sandwich ELISA; capture 25F3C4; REG1A 100.00 ng/mL
In short: as §1

[15] = biological target: T1, recombinant human regenerating …; experiment: sandwich ELISA; capture 4H8F1; REG1A 3.70 ng/mL
In short: as §1

[16] = biological target: T1, recombinant human regenerating …; experiment: sandwich ELISA; capture 25F3C4; REG1A 1.23 ng/mL
In short: as §1

[17] = biological target: T1, recombinant human regenerating …; experiment: sandwich ELISA; capture 21B11D2; REG1A 11.11 ng/mL
In short: as §1

[18] = biological target: T1, recombinant human regenerating …; experiment: sandwich ELISA; capture 25F3C4; REG1A 33.33 ng/mL
In short: as §1

[19] = biological target: T1, recombinant human regenerating …; experiment: sandwich ELISA; capture 4H8F1; REG1A 100.00 ng/mL
In short: as §1

[20] = biological target: T1, recombinant human regenerating …; experiment: sandwich ELISA; capture 12F12A10; REG1A 100.00 ng/mL
In short: as §1

[21] = biological target: T1, recombinant human regenerating …; experiment: sandwich ELISA; capture 4H8F1; REG1A 11.11 ng/mL
In short: as §1

[22] = biological target: T1, recombinant human regenerating …; experiment: sandwich ELISA; capture 12F12A10; REG1A 33.33 ng/mL
In short: as §1

[23] = biological target: T1, recombinant human regenerating …; experiment: sandwich ELISA; capture 25F3C4; REG1A 3.70 ng/mL
In short: as §1

[24] = biological target: T1, recombinant human regenerating …; experiment: sandwich ELISA; capture 21B11D2; REG1A 3.70 ng/mL
In short: as §1

[25] = biological target: T1, recombinant human regenerating …; experiment: sandwich ELISA; capture 12F12A10; REG1A 0 ng/mL (blank)
In short: as §1

[26] = biological target: T1, recombinant human regenerating …; experiment: sandwich ELISA; capture 25F3C4; REG1A 0 ng/mL (blank)
In short: as §1

[27] = biological target: T1, recombinant human regenerating …; experiment: sandwich ELISA; capture 11D11B11; REG1A 0 ng/mL (blank)
In short: as §1

[28] = biological target: T1, recombinant human regenerating …; experiment: sandwich ELISA; capture 21B11D2; REG1A 0 ng/mL (blank)
In short: as §1

[29] = biological target: T1, recombinant human regenerating …; experiment: sandwich ELISA; capture 12F12A10; REG1A 3.70 ng/mL
In short: as §1

[30] = biological target: T1, recombinant human regenerating …; experiment: sandwich ELISA; capture 11D11B11; REG1A 3.70 ng/mL
In short: as §1

Binder	OD value [1] [OD]	OD value [2] [OD]	OD value [3] [OD]	OD value [4] [OD]	OD value [5] [OD]	OD value [6] [OD]	OD value [7] [OD]	OD value [8] [OD]	OD value [9] [OD]	OD value [10] [OD]	OD value [11] [OD]	OD value [12] [OD]	OD value [13] [OD]	OD value [14] [OD]	OD value [15] [OD]	OD value [16] [OD]	OD value [17] [OD]	OD value [18] [OD]	OD value [19] [OD]	OD value [20] [OD]	also measured
antibody 12F12A10 (antibody, V domains shown, Mouse monoclonal from hybridoma, stated mouse IgG1/Kappa; also called 12F12A10-biotin; Antibody 2) VH: QVQLQQSATELARPGASVKMSCKASGYTFTSYMMHWVKQRPGQGLEWIGYINPSSGYTDYNQKFKDKTTLTADKSSSTAYMQLSSLTSEDSAVYYCARYRYPHYFDYWGQGTTLTVSS VL: QIVLTQSPAIMSASPGEKVTMTCSASSSVSYIHWYQQKSGTSPKRWIYDTSKLASGVPARFSGSGSGTSYSLTISSMEAEDAAIYYCQQWSSNPPTFGAGTKLELKR	4.37	4.65	3.9	0.088	2.99	4.59	0.088	4.33	4.22	3.9	4.08	1.05	0.098	4.48	3.84	3.76	4.23	4.29	4.33	0.096	OD value [21]: 4.22 OD; OD value [22]: 0.098 OD; OD value [23]: 4.25 OD; OD value [24]: 4.59 OD; OD value [25]: 0.089 OD; OD value [26]: 0.093 OD; OD value [27]: 0.083 OD; OD value [28]: 0.09 OD; OD value [29]: 0.088 OD; OD value [30]: 2.81 OD
antibody 21B11D2 (antibody, mouse IgG2b, kappa, V domains shown, Mouse monoclonal from hybridoma, stated mouse IgG1/Kappa; Used unlabelled as capture and biotin-labelled as detection antibody; also called 21B11D2-biotin) VH: QAQLQQSGAELVRPGASVTLSCKASGYIFTDYEMHWVKQTPVHGLEWIGAIDPETGGTAYNQKFKGKARLTADKSSSTAYMELRSLTSEDSAVYYCTIYYTNHFDYWGQGTTLTVSS VL: DVVMTQTPLSLPVSLGDQASISCRSSQSLVYSNGDTYLYWYLQKPGQSPKLLIYKVSNRFSGVPDRFSGSGSGTDFTLKISRVEAEDLGVYFCSQSTHVPLTFGAGTKLELKR	0.069	0.068	0.066	0.069	0.072	0.071	2.89	0.073	0.065	0.066	0.063	0.07	1.18	0.073	0.068	0.066	0.069	0.071	0.08	3.35	OD value [21]: 0.07 OD; OD value [22]: 3.21 OD; OD value [23]: 0.068 OD; OD value [24]: 0.069 OD; OD value [25]: 0.068 OD; OD value [26]: 0.068 OD; OD value [27]: 0.068 OD; OD value [28]: 0.073 OD; OD value [29]: 2.38 OD; OD value [30]: 0.06 OD

Reference: patent publication US20240241135A1 (SENBOLL BIOTECHNOLOGY, published 2024)
